The experiment has as its system PFFF3 cells. Put plainly: Treatment of Cas9/gRNA-modified PFFF3 cells during multiplex PERV pol genetic modification. Format: cell-based, porcine. Particulars: FIG. 2. Here is the method: Stable expression of Cas9 and the three sgRNAs was achieved by integrating a piggyBac transposon carrying these elements into the PFFF3 genome. The PFFF3 cell line was established expressing a Piggybac-Cas9/3gRNAs construct. Cas9 and […] were carried in the same vector. Cas9 expression was induced by addition of doxycycline.
Methods described herein where cells are treated with PFTα and/or bFGF mitigate the stress from multiplex DNA damage and support clonal expansion of 100% PERV-free cells. Such DNA damage decreases targeting efficiency of the PFFF3 population over time and results in the inability to obtain 100% PERV-free PFFF3 clonal cell lines. Methods described herein are directed to inhibiting senescence and/or apoptosis pathways with small-molecule drugs so as to increase the targeting efficiency of the PFFF3 population and enhance viability of the highly edited clones. […] (See FIG. 1). […] (See FIG. 2). […] The distribution of the targeting efficiencies of single cell clones treated with PFTα and bFGF was approximately bimodal, and 100% PERV-free PFFF3 clonal cell lines were isolated. The eradication of pol activity was validated by RNA-seq with confirmation that all pol transcripts had been mutated.

This note sets out measurements from patent US12325865B2, “Methods for increasing efficiency of gene editing in cells” (President and Fellows of Harvard College, priority 2017, dated 2025).

B1: SV40 large T antigen: SV40 large T antigen, treatment also increasing targeting efficiency (protein, UniProt P03070 1-708, looked up)
Large T antigen: MDKVLNREESLQLMDLLGLERSAWGNIPLMRKAYLKKCKEFHPDKGGDEEKMKKMNTLYKKMEDGVKYAHQPDFGGFWDATEIPTYGTDEWEQWWNAFNEENLFCSEEMPSSDDEATADSQHSTPPKKKRKVEDPKDFPSELLSFLSHAVFSNRTLACFAIYTTKEKAALLYKKIMEKYSVTFISRHNSYNHNILFFLTPHRHRVSAINNYAQKLCTFSFLICKGVNKEYLMYSALTRDPFSVIEESLPGGLKEHDFNPEEAEETKQVSWKLVTEYAMETKCDDVLLLLGMYLEFQYSFEMCLKCIKKEQPSHYKYHEKHYANAAIFADSKNQKTICQQAVDTVLAKKRVDSLQLTREQMLTNRFNDLLDRMDIMFGSTGSADIEEWMAGVAWLHCLLPKMDSVVYDFLKCMVYNIPKKRYWLFKGPIDSGKTTLAAALLELCGGKALNVNLPLDRLNFELGVAIDQFLVVFEDVKGTGGESRDLPSGQGINNLDNLRDYLDGSVKVNLEKKHLNKRTQIFPPGIVTMNEYSVPKTLQARFVKQIDFRPKDYLKHCLERSEFLLEKRIIQSGIALLLMLIWYRPVAEFAQSIQSRIVEWKERLDKEFSLSVYQKMKFNVAMGIGVLDWLRNSDDDDEDSQENADKNEDGGEKNMEDSGHETGIDSQSQGSFQAPQSSQSVHDHNQPYHICRGFTCFKKPPTPPPEPET
B1: the “average targeting efficiency of the resulting PFFF3 population” value is “increased average targeting efficiency”.
